# Measurements taken from US20110076723A1, “ANTIBODY-PEPTIDE FUSED SYNERGIBODY” (SAMSUNG ELECTRONICS CO., LTD., priority 2008, published 2011).
# T1: recombinant hAng-2 (Homo sapiens, UniProt O15123)
# T1 construct: His tag; purchased R&D Systems
# T1 sequence (O15123 19-496): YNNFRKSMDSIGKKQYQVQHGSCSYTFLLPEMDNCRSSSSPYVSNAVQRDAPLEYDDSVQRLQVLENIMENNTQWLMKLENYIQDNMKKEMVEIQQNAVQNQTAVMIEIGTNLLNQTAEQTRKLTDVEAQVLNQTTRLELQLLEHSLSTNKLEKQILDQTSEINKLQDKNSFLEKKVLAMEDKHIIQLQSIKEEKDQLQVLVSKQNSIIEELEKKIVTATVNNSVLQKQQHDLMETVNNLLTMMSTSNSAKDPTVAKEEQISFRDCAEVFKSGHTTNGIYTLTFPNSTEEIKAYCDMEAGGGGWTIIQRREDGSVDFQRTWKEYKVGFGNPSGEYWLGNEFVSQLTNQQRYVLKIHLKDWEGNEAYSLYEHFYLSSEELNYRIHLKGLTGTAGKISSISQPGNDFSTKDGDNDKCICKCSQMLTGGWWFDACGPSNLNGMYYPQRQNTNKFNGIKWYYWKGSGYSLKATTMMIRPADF
# T2: recombinant hAng-2 (recombinant protein with His tag attached to human Ang-2; R&D Systems) (human, UniProt O15123 19-496)
# T2 construct: also called angiopoietin-2; ANGPT2
# T2 sequence (looked up): T1 sequence (O15123 19-496)
# T3: recombinant VEGFR-2 protein (water soluble extracellular site of human VEGFR-2 with Fc of human IgG1 connected thereto, R&D Systems) (human), P35968
# T3 chain: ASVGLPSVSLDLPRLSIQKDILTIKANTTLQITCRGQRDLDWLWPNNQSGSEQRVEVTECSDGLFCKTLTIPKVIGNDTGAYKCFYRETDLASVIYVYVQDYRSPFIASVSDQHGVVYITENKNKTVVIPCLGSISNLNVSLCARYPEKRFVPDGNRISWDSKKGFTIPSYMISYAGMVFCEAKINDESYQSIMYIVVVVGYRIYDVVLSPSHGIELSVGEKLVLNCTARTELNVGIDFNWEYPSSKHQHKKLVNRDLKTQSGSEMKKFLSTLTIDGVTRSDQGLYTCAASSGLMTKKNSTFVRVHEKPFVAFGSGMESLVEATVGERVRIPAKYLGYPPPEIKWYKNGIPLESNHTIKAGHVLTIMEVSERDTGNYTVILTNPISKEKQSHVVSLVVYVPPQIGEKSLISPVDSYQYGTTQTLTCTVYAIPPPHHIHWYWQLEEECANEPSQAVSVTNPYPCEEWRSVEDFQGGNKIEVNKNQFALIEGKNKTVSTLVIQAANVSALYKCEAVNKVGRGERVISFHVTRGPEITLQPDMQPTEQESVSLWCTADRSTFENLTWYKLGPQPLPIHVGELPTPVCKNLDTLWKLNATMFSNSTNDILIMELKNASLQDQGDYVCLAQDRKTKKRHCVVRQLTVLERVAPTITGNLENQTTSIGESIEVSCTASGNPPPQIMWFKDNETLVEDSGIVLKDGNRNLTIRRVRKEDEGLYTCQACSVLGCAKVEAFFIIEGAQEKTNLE
# B1: SAITAng-2-2 (antibody, V domains shown)
# VH: QVQLQQSGPELVKPGASVKMSCKASGYTFTDYVISWVKQRTGQGLEWIGEIYPGSGSTYYNEKFKGKASLTADKSSNTAYMQLSSLTSADSAVYFCVRSRGDYYAMDYWGQGTSVTVSS
# VL: DIQMTQSPSSLSASLGGKVTITCKASQDINNYITWYQHKPGKGPRLLIHYTSTLQPGIPSRFSGSGSGRDYSFSISNLEPEDIATYYCLQYDNLLTFGGGTKLEIK
# notes: Mouse monoclonal anti-Ang-2 antibody purified from hybridoma culture
# B2: SAITAng-2-3 (antibody, V domains shown)
# VH: DVQLVESGGGLVQPGGSRKLSCAASGFTFSSFGMHWVRQAPEKGLEWVAYISSDSSTIYYADTVKGRFTISRDNPKNTLFLQMTSLRSEDTAMYYCAREGGYDDYYAMDYWGQGTSVTVSS
# VL: DIQMTQSPASQSASLGESVTITCLASQTIGTWLAWYQQKPGKSPQLLIYAATSLADGVPSRFSGSGSGTKFSFKISSLQAEDFVSYYCQQLYSIPLTFGGGTKLEIK
# notes: as for B1
# B3: SAITAng-2-4 (antibody, V domains shown)
# VH: QVQLQQSGAELARPGASVKLSCKASGYTFTDYYINWAKQRTGQGLEWIGEIYPGSGDTYYNEKFKGKATLTADKSSSTAYMQLSSLTSEDSAVYFCARYGYKGVYFDYWGQSTTLTVSS
# VL: ENVLTQSPAIMAASLGQKVTMTCSASSSVSSSYLHWYQQKSGASPKPLIHRTSNLASGVPARFSGSGSGTSYSLTISSVEAEDDATYYCQQWSGYPFTFGAGTKLELK
# notes: as for B1
# B4: Syn-Ang-VEGFR-18 (other)
# heavy (part 1 of 2): B3 VH
# heavy (part 2 of 2): EAGAYWCKAWGLSPCLVT
# light: B3 VL
# notes: Chimeric (human IgG1) SAITAng-2-4 with the peptide at the C-terminus of the heavy chain; also called SAITAng-2-4 x DTN9VEGFR-2-3; not shown: human IgG1 heavy chain constant region with Fc region, from the vector; human light chain constant region, printed as 'constant region of human IgG1'
# B5: Syn-Ang-VEGFR-19 (other)
# heavy (part 1 of 2): B3 VH
# heavy (part 2 of 2): TGSGRMCDGSGPPTNCWFT
# light: B3 VL
# notes: Chimeric (human IgG1) SAITAng-2-4 with the peptide at the C-terminus of the heavy chain; also called SAITAng-2-4 x DTN10VEGFR-2-4; not shown: human IgG1 heavy chain constant region with Fc region, from the vector; human light chain constant region, printed as 'constant region of human IgG1'
# B6: Syn-Ang-VEGFR-20 (other)
# heavy (part 1 of 2): B3 VH
# heavy (part 2 of 2): PGSQGYCHLNMRYQWICDSE
# light: B3 VL
# notes: Chimeric (human IgG1) SAITAng-2-4 with the peptide at the C-terminus of the heavy chain; also called SAITAng-2-4 x DTN11VEGFR-2-5; not shown: human IgG1 heavy chain constant region with Fc region, from the vector; human light chain constant region, printed as 'constant region of human IgG1'
# B7: DTN6VEGFR-2-1 (peptide)
# peptide: TGSDDLCYTFPCMHY
# modifications: not checked
# B8: DTN8VEGFR-2-2 (peptide)
# peptide: EAGKETCGYEWQYCPRP
# modifications: not checked
# B9: DTN9VEGFR-2-3 (peptide)
# peptide: EAGAYWCKAWGLSPCLVT
# modifications: not checked
# B10: DTN10VEGFR-2-4 (peptide)
# peptide: TGSGRMCDGSGPPTNCWFT
# modifications: not checked
# B11: DTN11VEGFR-2-5 (peptide)
# peptide: PGSQGYCHLNMRYQWICDSE
# modifications: not checked
# Biological target: T1, recombinant hAng-2
# Assay: Affinity to Ang-2 antigen by surface plasmon resonance (BIAcore T100)
# Assay type: binding
# Conditions: SPR, hAng-2 on CM5 chip
# Experimental: (§1) The SPR method using BIAcore T100 (GE Healthcare) is used to accurately measure the affinity to the Ang-2 antigens. 20 μg/ml recombinant hAng-2 (R&D Systems) is fixed on a sensor chip CM5 (GE Healthcare) using pH4.5 acetate solution and amine coupling kit (GE Healthcare). The antibodies obtained in Section 2 above are diluted to eight different concentrations down to 0.78125 nM by diluting to ½ each time starting from 100 nM. Then the antigen/antibody affinity is measured by causing the antigens to repeatedly bind and disassociate with the antibodies fixed on the sensor chip (using pH2.2 glycine-HCl solution).
Molecule,Off Rate [s⁻¹],On rate [M⁻¹ s⁻¹]
B1,0.0004769,433200
B2,0.0003023,501200
B3,0.0004769,512100

# Biological target: T2, recombinant hAng-2 (recombinant protein …)
# Assay: SPR, BIAcore T100; hAng-2 amine-coupled on CM5, antibody 100 to 0.78125 nM
# Conditions: not given
# Experimental: as §1
Molecule,Kd [nM],koff [s⁻¹],kon [M⁻¹ s⁻¹]
B1,1.1,0.000477,433000
B2,0.603,0.000302,501000
B3,0.931,0.000477,512000

# Biological target: T4, recombinant VEGFR-2 protein (water soluble extracellular site of human VEGFR-2 with Fc of human IgG1 … (human, UniProt P35968 20-764))
# T4 construct: extracellular domain; Bought; not shown: Fc of human IgG1
# Assay: competitive ELISA; synergibody titrated with 1 nM VEGFR-2 on coated VEGF 165
# Conditions: not given
# Experimental: Competitive ELISA is performed using the peptides synthesized above in Section 6A in order to assess the molecular interaction of the binders. […] Then the plate is washed five times with PBS containing 0.1% Tween-20, and blocked at room temperature for two hours with PBS containing 5% BSA. For VEGF:VEGFR-2 neutralization ELISA, each of the peptides synthesized in Section 6A above are diluted to one-fourth each time from 100 nM with PBS containing 1 nM VEGFR-2 and 1% BSA, and adjusted to 6.1 pM. 100 μl of peptide/VEGFR-2 solution is added to each well and the plate is left to react at room temperature for two hours. Subsequently, it is washed five times with PBS containing 0.1% Tween-20, mouse anti-VEGFR-2 antibodies (R&D Systems) is diluted to about 1:3,000 with PBS containing 1% BSA, and left to react at room temperature for one hour. Then 100 μl of goat anti-mouse-IgG-HRP (Pierce) diluted to about 1:10,000 with PBS containing 1% BSA is added to each well of the plate, left to react at room temperature for one hour, and washed five times with PBS containing 0.1% Tween-20. Lastly, 100 μl of TMB substrate (SIGMA) is added to each well of the plate to induce color reaction. The reaction is stopped by adding 50 μl of 5N H₂SO₄ solution, and the OD₄₅₀ value is read on a plate reader (Molecular Devices). Through the foregoing, the IC₅₀ value for the VEGF:VEGFR-2 binding capacity is obtained.
# The method in Example 2, Section 6B above is used, except that, in the present example, each fused protein synergibodies are diluted from 100 nM to one-fourth each time with PBS containing 1% BSA and 1nM VEGFR-2 and adjusted to 6.1 pM for VEGF:VEGF-2 neutralization ELISA.
row,Molecule,IC50 [nM]
1,B4,1.65
2,B5,1.31
3,B6,1.38

# Biological target: T3, recombinant VEGFR-2 protein (water …)
# Assay: competitive ELISA; peptide titrated with 1 nM VEGFR-2 on coated VEGF 165
# Conditions: not given
row,Molecule,IC50 [nM]
1,B7,56.7
2,B8,49.5
3,B9,61.9
4,B10,46.9
5,B11,50.7

# Biological target: T2, recombinant hAng-2 (recombinant protein …)
# Assay: competitive ELISA; antibody titrated with 1 nM hAng-2 (His) on coated hTie2-Fc
# Conditions: not given
# Experimental: (§2) A competitive ELISA is performed to assess the molecular interaction of the binders. A 96-well MaxiSorp™ flat-bottom plate (Nunc) is coated with hTie2-Fc (R&D Systems), which is a fused protein including the water-soluble extracellular portion of human Tie-2 and Fc of human IgG₁ dissolved in DMEM culture solution containing 50 μg/ml bovine serum albumin (BSA). The concentration of hTie2-Fc used as a coating material is equivalent to 75% of its maximum binding concentration with 1 nM of recombinant hAng-2 (recombinant protein with His tag attached to human Ang-2; R&D Systems). Then the plate is washed five times with Phosphate Buffer Saline (PBS) containing 0.1% Tween-20 and blocked at room temperature for two hours with PBS containing 5% BSA. Each anti-Ang-2 antibodies are diluted from 100 nM by one-fourth each time with PBS containing 1% BSA and 1 nM hAng-2 and adjusted to 6.1 pM for Ang-2:Tie-2 neutralization ELISA. 100 μl of antibody/hAng-2 solutions are placed in each corresponding well and left to react at room temperature for two hours. Then the wells are washed five times with PBS containing 0.1% Tween-20, and the anti-His antibodies (GE Healthcare) are diluted to about 1:3,000 with PBS containing 1% BSA and left to react at room temperature for one hour. Afterwards, 100 μl of goat anti-mouse-IgG-HRP (Pierce) diluted with PBS containing 1% BSA to about 1:10,000 is added to each well of the plate, left to react at room temperature for one hour, and washed with PBS containing 0.1% Tween-20 five times. Lastly, 100 μl of TMB substrate (SIGMA) is added to each well of the plate to induce color reaction, and the reaction is stopped by adding 50 μl of 5N H₂SO₄ solution. The OD₄₅₀ value is read on a plate reader (Molecular Devices).
row,Molecule,IC50 [nM]
1,B1,1.86
2,B2,0.822
3,B3,1.01

# Biological target: T2, recombinant hAng-2 (recombinant protein …)
# Assay: competitive ELISA; synergibody titrated with 1 nM hAng-2 (His) on coated hTie2-Fc
# Conditions: not given
# Experimental: as §2
# The method described in Example 1, Section 3 above is used, except that, in the present example, each fused protein synergibodies are diluted from 100 nM to one-fourth each time with PBS containing 1% BSA and 1 nM hAng-2 and adjusted to 6.1 pM for Ang-2:Tie-2 neutralization ELISA.
row,Molecule,IC50 [nM]
1,B4,1.39
2,B5,1.28
3,B6,1.35
